Assay results from patent US20260256840A1.

Tests used:
[1] = target: unmodified NY-ESO TCR (wild-type TCR beta constant domain) (human); test: flow cytometry of CD8+ T cells, FITC-BW242/412 against PE NY-ESO dextramer (FIG. 9)
[2] = target: NY-ESO TCR with the D111K modification in the TRBC constant region (human); test: as above
[3] = target: HIT receptor with the D111K mutation in the TCR beta constant region (human); test: anti-TCR bead negative selection of T cells, cell count and flow cytometry (FIG. 7)
[4] = target: NY-ESO TCR with the D111K modification in the TRBC constant region (human); test: anti-TCR negative selection of T cells, flow cytometry

In the case of BW242/412 anti-TCR antibody, the % of the NY-ESO dextramer-positive population not stained by the anti-TCR antibody [1] is reported as 0%, the % of the NY-ESO dextramer-positive population not stained by the anti-TCR antibody [2] is reported as 60% and the % recovery of HIT+ cells after BW242/412 negative selection (cells not bound by the antibody) [3] is reported as 57.7%. The % recovery post purification (BW242/412 negative selection) [4] was 80%.
